From patent US20230399608A1, “PROCESS FOR ESTABLISHING A HUMAN TESTICULAR TISSUE CULTURE SYSTEM” (PATERNA BIOSCIENCES INC., priority 2021, published 2023) come the findings set out here.

The labels stand for the following.
B1: WNT-3A: ligand of RYK/FZD3/FZD7/FZD1/LRP6 (protein, UniProt P56704 19-352, looked up)
Protein Wnt-3a: SYPIWWSLAVGPQYSSLGSQPILCASIPGLVPKQLRFCRNYVEIMPSVAEGIKIGIQECQHQFRGRRWNCTTVHDSLAIFGPVLDKATRESAFVHAIASAGVAFAVTRSCAEGTAAICGCSSRHQGSPGKGWKWGGCSEDIEFGGMVSREFADARENRPDARSAMNRHNNEAGRQAIASHMHLKCKCHGLSGSCEVKTCWWSQPDFRAIGDFLKDKYDSASEMVVEKHRESRGWVETLRPRYTYFKVPTERDLVYYEASPNFCEPNPETGSFGTRDRTCNVSSHGIDGCDLLCCGRGHNARAERRREKCRCVFHWCCYVSCQECTRVYDVHTCK
B2: Artemin (ARTN): ligand of GFRA1/GFRA2/RET/GFRA3 (protein, UniProt Q5T4W7 108-220, looked up)
Artemin: AGGPGSRARAAGARGCRLRSQLVPVRALGLGHRSDELVRFRFCSGSCRRARSPHDLSLASLLGAGALRPPPGSRPVSQPCCRPTRYEAVSFMDVNSTWRTVDRLSATACGCLG
B3: GDF6/BMP13: ligand of BMPR1B/BMPR1A/BMPR2 (protein, UniProt Q6KF10 336-455, looked up)
Growth/differentiation factor …: TAFASRHGKRHGKKSRLRCSKKPLHVNFKELGWDDWIIAPLEYEAYHCEGVCDFPLRSHLEPTNHAIIQTLMNSMDPGSTPPSCCVPTKLTPISILYIDAGNNVVYKQYEDMVVESCGCR
B4: WNT-1: ligand of RYK/FZD3/FZD7/FZD1/ROR2/LRP6 (protein, UniProt P04628 28-370, looked up)
Proto-oncogene Wnt-1: ANSSGRWWGIVNVASSTNLLTDSKSLQLVLEPSLQLLSRKQRRLIRQNPGILHSVSGGLQSAVRECKWQFRNRRWNCPTAPGPHLFGKIVNRGCRETAFIFAITSAGVTHSVARSCSEGSIESCTCDYRRRGPGGPDWHWGGCSDNIDFGRLFGREFVDSGEKGRDLRFLMNLHNNEAGRTTVFSEMRQECKCHGMSGSCTVRTCWMRLPTLRAVGDVLRDRFDGASRVLYGNRGSNRASRAELLRLEPEDPAHKPPSPHDLVYFEKSPNFCTYSGRLGTAGTAGRACNSSSPALDGCELLCCGRGHRTRTQRVTERCNCTFHWCCHVSCRNCTHTRVLHECL
B5: CNTN2: ligand of CNTNAP2 (protein, UniProt Q02246 31-1012, looked up)
Contactin-2: SQTTFGPVFEDQPLSVLFPEESTEEQVLLACRARASPPATYRWKMNGTEMKLEPGSRHQLVGGNLVIMNPTKAQDAGVYQCLASNPVGTVVSREAILRFGFLQEFSKEERDPVKAHEGWGVMLPCNPPAHYPGLSYRWLLNEFPNFIPTDGRHFVSQTTGNLYIARTNASDLGNYSCLATSHMDFSTKSVFSKFAQLNLAAEDTRLFAPSIKARFPAETYALVGQQVTLECFAFGNPVPRIKWRKVDGSLSPQWTTAEPTLQIPSVSFEDEGTYECEAENSKGRDTVQGRIIVQAQPEWLKVISDTEADIGSNLRWGCAAAGKPRPTVRWLRNGEPLASQNRVEVLAGDLRFSKLSLEDSGMYQCVAENKHGTIYASAELAVQALAPDFRLNPVRRLIPAARGGEILIPCQPRAAPKAVVLWSKGTEILVNSSRVTVTPDGTLIIRNISRSDEGKYTCFAENFMGKANSTGILSVRDATKITLAPSSADINLGDNLTLQCHASHDPTMDLTFTWTLDDFPIDFDKPGGHYRRTNVKETIGDLTILNAQLRHGGKYTCMAQTVVDSASKEATVLVRGPPGPPGGVVVRDIGDTTIQLSWSRGFDNHSPIAKYTLQARTPPAGKWKQVRTNPANIEGNAETAQVLGLTPWMDYEFRVIASNILGTGEPSGPSSKIRTREAAPSVAPSGLSGGGGAPGELIVNWTPMSREYQNGDGFGYLLSFRRQGSTHWQTARVPGADAQYFVYSNESVRPYTPFEVKIRSYNRRGDGPESLTALVYSAEEEPRVAPTKVWAKGVSSSEMNVTWEPVQQDMNGILLGYEIRYWKAGDKEAAADRVRTAGLDTSARVSGLHPNTKYHVTVRAYNRAGTGPASPSANATTMKPPPRRPPGNISWTFSSSSLSIKWDPVVPFRNESAVTGYKMLYQNDLHLTPTLHLTGKNWIEIPVPEDIGHALVQIRTTGPGGDGIPAEVHIVRNGGTSMMVEN
B6: rh MIF: ligand of CXCR4/CD74 (protein, UniProt P14174 2-115, looked up)
Macrophage migration …: PMFIVNTNVPRASVPDGFLSELTQQLAQATGKPPQYIAVHVVPDQLMAFGGSSEPCALCSLHSIGKIGGAQNRSYSKLLCGLLAERLRISPDRVYINYYDMNAANVGWNNSTFA
B7: Neurturin (NRTN): ligand of GFRA1/GFRA2/RET/GFRA3 (protein, UniProt Q99748 96-197, looked up)
Neurturin: ARLGARPCGLRELEVRVSELGLGYASDETVLFRYCAGACEAAARVYDLGLRRLRQRRRLRRERVRAQPCCRPTAYEDEVSFLDAHSRYHTVHELSARECACV
B8: GDF9: ligand of ACVR2A/BMPR1B/BMPR1A/BMPR2/TGFBR1 (protein, UniProt O60383 320-454, looked up)
Growth/differentiation factor …: GQETVSSELKKPLGPASFNLSEYFRQFLLPQNECELHDFRLSFSQLKWDNWIVAPHRYNPRYCKGDCPRAVGHRYGSPVHTMVQNIIYEKLDSSVPRPSCVPAKYSPLSVLTIEPDGSIAYKEYEDMIATKCTCR
B9: GDNF: recombinant human glial cell line-derived neurotrophic factor (protein, UniProt P39905 78-211, looked up)
Glial cell line-derived …: SPDKQMAVLPRRERNRQAAAANPENSRGKGRRGQRGKNRGCVLTAIHLNVTDLGLGYETKEELIFRYCSGSCDAAETTYDKILKNLSRNRRLVSDKVGQACCRPIAFDDDLSFLDDNLVYHILRKHSAKRCGCI
B10: DLK2: ligand of NOTCH1 (protein, UniProt Q6UY11 27-383, looked up)
Protein delta homolog 2: DDCSSHCDLAHGCCAPDGSCRCDPGWEGLHCERCVRMPGCQHGTCHQPWQCICHSGWAGKFCDKDEHICTTQSPCQNGGQCMYDGGGEYHCVCLPGFHGRDCERKAGPCEQAGSPCRNGGQCQDDQGFALNFTCRCLVGFVGARCEVNVDDCLMRPCANGATCLDGINRFSCLCPEGFAGRFCTINLDDCASRPCQRGARCRDRVHDFDCLCPSGYGGKTCELVLPVPDPPTTVDTPLGPTSAVVVPATGPAPHSAGAGLLRISVKEVVRRQEAGLGEPSLVALVVFGALTAALVLATVLLTLRAWRRGVCPPGPCCYPAPHYAPACQDQECQVSMLPAGLPLPRDLPPEPGKTTAL
B11: GDF11/BMP11: ligand of BMPR1B/BMPR1A/BMPR2/ACVR2B/ACVR1B/ACVR2A (protein, UniProt O95390 299-407, looked up)
Growth/differentiation factor …: NLGLDCDEHSSESRCCRYPLTVDFEAFGWDWIIAPKRYKANYCSGQCEYMFMQKYPHTHLVQQANPRGSAGPCCTPTKMSPINMLYFNDKQQIIYGKIPGMVVDRCGCS
B12: rh HB-EGF: ligand of CD9 (protein, UniProt Q99075 63-148, looked up)
Heparin-binding EGF-like …: DLQEADLDLLRVTLSSKPQALATPNKEEHGKRKKKGKGLGKKRDPCLRKYKDFCIHGECKYVKELRAPSCICHPGYHGERCHGLSL
B13: BMP8b: ligand of BMPR1B/BMPR1A/BMPR2 (protein, UniProt P34820 264-402, looked up)
Bone morphogenetic protein 8B: AVRPLRRRQPKKSNELPQANRLPGIFDDVHGSHGRQVCRRHELYVSFQDLGWLDWVIAPQGYSAYYCEGECSFPLDSCMNATNHAILQSLVHLMMPDAVPKACCAPTKLSATSVLYYDSSNNVILRKHRNMVVKACGCH
B14: rh Midkine Protein: ligand of GPC2 (protein, UniProt P21741 21-143, looked up)
Midkine: VAKKKDKVKKGGPGSECAEWAWGPCTPSSKDCGVGFREGTCGAQTQRIRCRVPCNWKKEFGADCKYKFENWGACDGGTGTKVRQGTLKKARYNAQCQETIRVTKPCTPKTKAKAKAKKGKGKD

The test system of the experiment is testicular germ cell proliferation. As to the kind of experiment: Screen of SSC / differentiating spermatogonia receptor ligands in the iterative culture process. It is filed as cell-based, human. The conditions noted are these: ligand at the concentration listed in Table 5; effective to date at improving germ cell proliferation. From the text: A process for identification and selection of receptor ligands capable of improving testicular germ cell proliferation was developed. The process uses expression data obtained by mining scRNA-seq data obtained from testicular tissue (FIG. 27). The process systematically prioritizes candidates for spermatogonia ligands through a series of bioinformatics analyses and filtering. The process comprises identifying and selecting potential ligands based on their receptor expression in State 1 SSCs (active stem cells) and State 2/3 differentiating spermatogonia (differentiated germ cells with strong proliferation ability), or any combination thereof.
More specifically, the approach was based on the single-cell RNA sequencing transcriptome profile of the adult human testis atlas (Guo, J., Grow, E. J., Mlcochova, H., Maher, G. J., Lindskog, C., Nie, X., Guo, Y., Takei, Y., Yun, J., Cai, L., et al. (2018). The adult human testis transcriptional cell atlas. Cell Research 28, 1141. 10.1038/s41422-018-0099-2; the disclosure of all of which is incorporated herein in its entirety), which provides a comprehensive characterization of cell types in the human adult testis. Pseudo-bulk RNA-seq analysis was used, which involves aggregating individual cells into groups to enhance the receptor gene expression signal on SSCs and differentiating spermatogonia. Each individual cell is assigned to its corresponding cell type cluster based and summing the expression values of all cells within each cluster to create pseudo-bulk samples.
The CellTalkDB database was used to identify receptors expressed in SSCs/differentiating spermatogonia. Specifically, the receptors whose expression in SSCs/differentiating spermatogonia ranks within the top 150 were selected, as expression levels below this point are generally low in these cell populations. […] This filtering step helps to focus on receptors that are more specific to the target cell populations. Using the CellTalkDB database, the corresponding ligands for the selected receptors were then identified. The ligand candidates were prioritized based on their expression levels in the testes, and their known functionality.
The identified ligands were then used in the iterative process of the instant disclosure for identifying culture conditions that support testicular germ cell proliferation in vitro to refine the culture conditions.
For rh beta-NGF: ligand of KIDINS220, the Effective result was “Yes”.

As for “rh LIF: leukemia inhibitory factor; ligand of IL6ST/LIFR”, the Effective entry is “Yes”.

In the case of rh Secretin: ligand of VIPR2, the Effective result is on record as “No”.

With rh CXCL12: chemokine; ligand of CXCR4, the Effective entry is listed as “No”.

With FGF2: basic fibroblast growth factor, the Effective result is “Yes”.

As to `C[C@]12CC[C@H]3[C@@H](CCC4=CC(=O)CC[C@@]43C)[C@@H]1CC[C@@H]2O` [Testosterone, reference compound], the Effective result is “Yes”.

As for B1, the Effective entry was “Yes”.

Regarding B2, the Effective entry was “No”.

For B3, the Effective result is given as “No”.

As for B4, the Effective result is recorded as “No”.

On to B5, for which the Effective entry is reported as “No”.

Regarding B6, the Effective entry is recorded as “Yes”.

Take B7: the Effective entry is on record as “Yes”.

In the case of B8, the Effective result is given as “No”.

With B9, the Effective entry is “Yes”.

Turning to B10, the Effective entry is “No”.

With B11, the Effective result is given as “No”.

In the case of B12, the Effective result is on record as “Yes”.

Turning to B13, the Effective result is reported as “No”.

For the molecule B14, the Effective entry is “Yes”.
